Source: patent US20200362047A1 (CRESCENDO BIOLOGICS, published 2020)
Positions count from the first letter of the chain named.

B1: Humabody VH 2.41 (VHH)
VHH: EVQLVESGGGLVKPGGSLRLSCAASGFTFSDYYMSWFRQAPGKGLEWVSYISGSGDIIDYADSVKGRFTISRDNAKNSLYLQMNNLRAEDTAVYHCAREDSRLTGTTDFDNWGQGTLVTVSS
notes: human single VH domain
B2: Humabody VH 2.49 (VHH)
VHH: B1 VHH with F37I, N85S, H95Y, S101P
notes: human single VH domain
B3: Humabody VH 2.45 (VHH)
VHH: B1 VHH with H95Y
notes: human single VH domain
B4: Humabody VH 2.42 (VHH)
VHH: B1 VHH with L20V, F37I
notes: human single VH domain
B5: Humabody VH 2.47 (VHH)
VHH: B1 VHH with N85S, H95Y
notes: human single VH domain
B6: Humabody VH 2.48 (VHH)
VHH: B1 VHH with F37I, N85S, H95Y, S101A
notes: human single VH domain
B7: Humabody VH 2.50 (VHH)
VHH: B1 VHH with N85S, H95Y, S101A
notes: human single VH domain
B8: Humabody VH 2.46 (VHH)
VHH: B1 VHH with F37I, N85S, H95Y
notes: human single VH domain
B9: Humabody VH 2.51 (VHH)
VHH: B1 VHH with N85S, H95Y, S101P
notes: human single VH domain
B10: Humabody VH 1.107 (VHH)
VHH: EVQLVESGGGLVQPGGSLRLSCAASGFTLSNYWMNWVRQAPGKGLEWVANINQDGSERYYVDSVKGRFTISRDNAKNSLYLQMSSLRAEDTAVYFCARGGEGYGVDHYGLDVSGQGTTVTVSS
notes: human single VH domain
B11: Humabody VH 1.112 (VHH)
VHH: B10 VHH with S25T, S84N, F95Y
notes: human single VH domain
B12: Humabody VH 1.108 (VHH)
VHH: B10 VHH with S25T, S84N
notes: human single VH domain
B13: Humabody VH 1.109 (VHH)
VHH: B10 VHH with S25T, F95Y
notes: human single VH domain
B14: Humabody VH 1.110 (VHH)
VHH: B10 VHH with S84N
notes: human single VH domain
B15: Humabody VH 1.111 (VHH)
VHH: B10 VHH with F95Y
notes: human single VH domain
B16: Humabody VH 1.114 (VHH)
VHH: B10 VHH with G55E, S84N, F95Y
notes: human single VH domain
B17: Humabody VH 1.90 (VHH)
VHH: EVQLVESGGGLVQPGGSLRLSCAASGFTFSSHWMTWVRQAPGKGLEWVAHIKEDGSEKYYEDSVEGRFTVSRDNAKNSVYLQMNSLRAEDTAVYYCARGGDGYSDSHFGVDVWGQGTTVTVSS
notes: human single VH domain
B18: Humabody VH 1.99 (VHH)
VHH: B17 VHH with V37F, G55E, E61V, E65K, V70I, V79L
notes: human single VH domain
B19: Humabody VH 1.106 (VHH)
VHH: B17 VHH with V37F, G55E, E61V, E65K, V70I, V79L, D101E, D105I
notes: human single VH domain
B20: Humabody VH 1.91 (VHH)
VHH: B17 VHH with V37F, E61V, E65K
notes: human single VH domain
B21: Humabody VH 1.98 (VHH)
VHH: B17 VHH with G55E, E61V, E65K, V70I, V79L, D101E, D105I
notes: human single VH domain
B22: Humabody VH 1.105 (VHH)
VHH: B17 VHH with V37F, G55E, E61V, E65K, V70I, V79L, D101V, D105I
notes: human single VH domain
B23: Humabody VH 1.101 (VHH)
VHH: B17 VHH with V37F, D54G, E61V, E65K, V70I, V79L
notes: human single VH domain
B24: Humabody VH 1.94 (VHH)
VHH: B17 VHH with V37F, V79L
notes: human single VH domain
B25: Humabody VH 1.97 (VHH)
VHH: B17 VHH with G55E, E61V, E65K, V70I, V79L, D101V, D105I
notes: human single VH domain
B26: Humabody VH 1.93 (VHH)
VHH: B17 VHH with V37F, V70I
notes: human single VH domain
B27: Humabody VH 1.95 (VHH)
VHH: B17 VHH with E61V, E65K, V70I, V79L
notes: human single VH domain
B28: Humabody VH 1.92 (VHH)
VHH: B17 VHH with V37F, E65K
notes: human single VH domain
B29: Humabody VH 1.102 (VHH)
VHH: B17 VHH with V37F, D54E, E61V, E65K, V70I, V79L
notes: human single VH domain
B30: Humabody VH 1.104 (VHH)
VHH: B17 VHH with V37F, E61V, E65K, V70I, V79L, D101V
notes: human single VH domain
B31: Humabody VH 1.100 (VHH)
VHH: B17 VHH with V37F, G55E, E61V, E65K, V70I, V79L, D105I
notes: human single VH domain
B32: Humabody VH 1.103 (VHH)
VHH: B17 VHH with V37F, E61V, E65K, V70I, V79L, D101E
notes: human single VH domain
B33: Humabody VH 1.96 (VHH)
VHH: B17 VHH with V37F, E61V, E65K, V70I, V79L
notes: human single VH domain
B34: 1.1-6GS-1.1 (VHH)
chain: EVQLVESGGGLVQPGGSLRLSCAASGFTFSSHWMTWFRQAPGKGLEWVAHIKEDGSEKYYEDSVEGRFTVSRDNAKNSVYLQMNSLRAEDTAVYYCARGGDGYSDSHFGVDVWGQGTTVTVSSGGGGSGGGGSGGGGSGGGGSGGGGSGGGGSEVQLVESGGGLVQPGGSLRLSCAASGFTFSSHWMTWFRQAPGKGLEWVAHIKEDGSEKYYEDSVEGRFTVSRDNAKNSVYLQMNSLRAEDTAVYYCARGGDGYSDSHFGVDVWGQGTTVTVSS
notes: bivalent tandem VH, monospecific for CD137; also called bivalent Humabody VH 1.1; not shown: His tag
B35: 2.1-6GS-2.1 (VHH)
chain: EVQLVESGGGLVKPGGSLRVSCAASGFTFSDYYMSWFRQAPGKGLEWVSYISGSGDIIDYADSVKGRFTISRDNAKNSLYLQMNNLRAEDTAVYHCAREDSRLTGTTDFDNWGQGTLVTVSSGGGGSGGGGSGGGGSGGGGSGGGGSGGGGSEVQLVESGGGLVKPGGSLRVSCAASGFTFSDYYMSWFRQAPGKGLEWVSYISGSGDIIDYADSVKGRFTISRDNAKNSLYLQMNNLRAEDTAVYHCAREDSRLTGTTDFDNWGQGTLVTVSS
notes: bivalent tandem VH, monospecific for CD137; also called bivalent Humabody VH 2.1; not shown: His tag

These binders were tested against T1, human CD137 expressed on the surface of CHO cells (human, UniProt Q07011 24-255) (assay: FMAT ligand inhibition, CD137 Ligand on CHO human CD137 cells).
T1 construct: Also used for the Jurkat reporter cells that express human CD137 (functional rows); also called CHO human CD137 cells; CHO huCD137
Protocol: In parallel to the binding assay, periplasmic extracts were tested for their ability to inhibit the interaction of human CD137 ligand protein with CHO human CD137 cells in an FMAT format. Total binding controls containing diluted periplasmic extract sample buffer and non-specific binding controls containing excess non-Fc tagged competitor were set up on each plate for data normalisation. Fluorescence signal was measured using the TTP Mirrorball and the FL2 median mean fluorescence intensity of gated used for the data normalisation. The data was expressed as a % of the total binding control (% control) after subtraction of the background signal determined from the non-specific binding control wells.
The ability of purified Humabody VH to inhibit the binding of CD137 Ligand to CHO human CD137 cells was measured in the FMAT ligand inhibition assay essentially as described in Example 6. VH inhibited the binding of human CD137 Ligand to human CD137.

T1 sequence (Q07011 24-255 limits assumed): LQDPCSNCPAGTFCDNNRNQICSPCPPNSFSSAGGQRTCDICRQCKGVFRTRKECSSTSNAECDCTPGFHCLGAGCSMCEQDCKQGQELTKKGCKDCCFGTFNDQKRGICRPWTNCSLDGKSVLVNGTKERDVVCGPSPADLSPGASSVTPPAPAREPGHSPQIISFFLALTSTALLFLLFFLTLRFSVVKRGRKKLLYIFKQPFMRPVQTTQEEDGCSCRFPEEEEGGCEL

| IC50 | Binder |
| --- | --- |
| 16 nM | B1 |
| 42 nM | B2 |
| 5.3 nM | B3 |
| 200 nM | B4 |
| 8.8 nM | B5 |
| 86 nM | B6 |
| 14 nM | B7 |
| 78 nM | B8 |
| 27 nM | B9 |
| 0.55 nM | B10 |
| 0.47 nM | B11 |
| 0.5 nM | B12 |
| 0.9 nM | B13 |
| 0.81 nM | B14 |
| 0.75 nM | B15 |
| 0.27 nM | B16 |
| 7.8 nM | B17 |
| 1.5 nM | B18 |

| IC50 | Binder |
| --- | --- |
| 2.1 nM | B19 |
| 1.9 nM | B20 |
| 4.7 nM | B21 |
| 2.8 nM | B22 |
| 7.9 nM | B23 |
| 0.8 nM | B24 |
| 3.8 nM | B25 |
| 0.7 nM | B26 |
| 24 nM | B27 |
| 2.9 nM | B28 |
| 1.7 nM | B29 |
| 1.1 nM | B30 |
| 1.4 nM | B31 |
| 1.3 nM | B32 |
| 2.7 nM | B33 |
| 0.28 nM | B34 |
| 0.43 nM | B35 |
